{"source": "paper PMC6895263", "key": {"ZBTB24 ZF4-8 [1]": {"target": "T1, ZBTB24 ZF4-8 (Mus musculus, UniProt Q80X44 375-519)", "T1 sequence": "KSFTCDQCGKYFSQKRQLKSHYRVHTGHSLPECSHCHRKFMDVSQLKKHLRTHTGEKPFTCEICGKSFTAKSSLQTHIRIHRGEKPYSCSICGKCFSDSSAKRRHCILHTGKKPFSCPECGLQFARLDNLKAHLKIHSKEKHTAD", "experiment": "X-ray crystallography"}, "ZBTB24 ZF4-8 [2]": {"target": "T1, ZBTB24 ZF4-8", "experiment": "X-ray crystallography", "remark": "listed apart in the source"}, "GST-ZBTB24 ZF1-8 C382Y": {"target": "T2, GST-ZBTB24 ZF1-8 C382Y (Mus musculus, UniProt Q80X44 288-519, C382Y)", "T2 sequence": "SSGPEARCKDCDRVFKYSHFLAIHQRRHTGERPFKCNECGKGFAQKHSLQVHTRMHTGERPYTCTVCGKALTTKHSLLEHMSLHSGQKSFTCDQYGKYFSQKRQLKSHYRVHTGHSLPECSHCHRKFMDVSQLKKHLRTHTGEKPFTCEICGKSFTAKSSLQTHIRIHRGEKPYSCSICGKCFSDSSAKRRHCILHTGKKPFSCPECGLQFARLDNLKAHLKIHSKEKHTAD", "experiment": "EMSA"}, "GST-ZBTB24 ZF1-8 C407G": {"target": "T3, GST-ZBTB24 ZF1-8 C407G (Mus musculus, UniProt Q80X44 288-519, C407G)", "T3 sequence": "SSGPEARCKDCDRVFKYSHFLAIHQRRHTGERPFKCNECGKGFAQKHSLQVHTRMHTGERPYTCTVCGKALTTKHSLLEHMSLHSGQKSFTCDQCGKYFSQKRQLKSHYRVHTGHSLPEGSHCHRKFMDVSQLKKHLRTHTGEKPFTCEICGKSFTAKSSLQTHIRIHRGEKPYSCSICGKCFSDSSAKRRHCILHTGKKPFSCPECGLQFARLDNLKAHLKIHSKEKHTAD", "experiment": "EMSA"}}, "note": "Like-named read-outs stand apart in the source and are kept apart here.", "data": [{"binder": "GT oligo (6ML4) (dsDNA) DNA 1: TGCTTCGTCCAGGACCTGCG DNA 2: ACGCAGGTCCTGGACGAAGC", "values": [{"measurement": "binding result", "setting": "ZBTB24 ZF4-8 [1]", "value": "binds"}]}, {"binder": "TG oligo (6ML2) (dsDNA) DNA 1: TTTAGCTGCCAGGACCTGCG DNA 2: ACGCAGGTCCTGGCAGCTAA", "values": [{"measurement": "binding result", "setting": "ZBTB24 ZF4-8 [2]", "value": "binds"}]}, {"binder": "TT oligo (6ML3) (dsDNA) DNA 1: TTTAGCTTCCAGGACCTGCG DNA 2: ACGCAGGTCCTGGAAGCTAA", "values": [{"measurement": "binding result", "setting": "ZBTB24 ZF4-8 [2]", "value": "binds"}]}, {"binder": "EMSA probe with ZBTB24 motif (dsDNA) DNA 1: TCCACTGCCAGGACCTTT DNA 2: AAAAGGTCCTGGCAGTGG", "values": [{"measurement": "binding result", "setting": "GST-ZBTB24 ZF1-8 C382Y", "value": "no binding"}, {"measurement": "binding result", "setting": "GST-ZBTB24 ZF1-8 C407G", "value": "no binding"}]}]}
